Source: patent US20160176955A1 (LEIDOS, published 2016)

B1: peptide 10 (amino acids 91-106 of CSP) (peptide)
peptide: HKKLKQPADGNPDP
B2: peptide 8 (amino acids 71-85 of CSP) (peptide)
peptide: SLGENDDGNNEDNEK
B3: monoclonal antibody (mAb) 5D5 (antibody, V domains shown)
VH: QVHLQQSGGEVARPGASVKLSCKASGYTFTGYGLSWVKQRTGQGLEWIGEIYPRSGNTYYNEKFKGKATLTADKSSSTAYMELRSLTSEDSAVYFCARSWGNSSFVYWGQGTLVTVSA
VL: SIVMTQTPKFLLVSAGDRVTITCKASQSVTNDVTWYQQKPGQSPKLLIYYASNRYTGVPDRFTGSGYGTDFTFTISTVQAEDLAVYFCQQDYSSPFTFGSGTKLEIKR
notes: Murine IgG1/kappa hybridoma antibody; also called 5D5 mAb; MRA-1242

target: B3; assay: competitive ELISA, competitor against rCSP for binding to mAb 5D5; row 0.001 µg/ml

Binder | ELISA signal (name and unit not given)
B1 | 0.92
NEDNEKLRK [peptide B] | 1.03
LRKPKHKKLKQ [peptide D] | 0.989
B2 | 0.952
DGNNEDNEK [peptide A] | 1.05
NEKLRKPKHK [peptide C] | 0.976
PKHKKLKQPAD [peptide E] | 0.925
EDNEKLRKPKHKKLK [peptide 9 (amino acids 81-95 of CSP)] | 0.19

target: B3; assay: competitive ELISA, competitor against rCSP for binding to mAb 5D5; row 0.01 µg/ml

Binder | ELISA signal (name and unit not given)
B1 | 3.34
NEDNEKLRK [peptide B] | 3.51
LRKPKHKKLKQ [peptide D] | 3.45
B2 | 3.35
DGNNEDNEK [peptide A] | 3.57
NEKLRKPKHK [peptide C] | 3.49
PKHKKLKQPAD [peptide E] | 3.39
EDNEKLRKPKHKKLK [peptide 9 (amino acids 81-95 of CSP)] | 0.246

Target: B1
Assay: indirect ELISA, 15-mer peptide mapping

Binder | binding result
B3 | no binding

Target: B2
Assay: indirect ELISA, 15-mer peptide mapping

Binder | binding result
B3 | no binding
